# Measurements taken from IntAct's records for PubMed 18202720.
# B1: Type-1 angiotensin II receptor A (Rattus norvegicus (Rat)), P25095 (parent)
# chain: MALNSSAEDGIKRIQDDCPKAGRHSYIFVMIPTLYSIIFVVGIFGNSLVVIVIYFYMKLKTVASVFLLNLALADLCFLLTLPLWAVYTAMEYRWPFGNHLCKIASASVSFNLYASVFLLTCLSIDRYLAIVHPMKSRLRRTMLVAKVTCIIIWLMAGLASLPAVIHRNVYFIENTNITVCAFHYESRNSTLPIGLGLTKNILGFLFPFLIILTSYTLIWKALKKAYEIQKNKPRNDDIFRIIMAIVLFFFFSWVPHQIFTFLDVLIQLGVIHDCKISDIVDTAMPITICIAYFNNCLNPLFYGFLGKKFKKYFLQLLKYIPPKAKSHSSLSTKMSTLSYRPSDNMSSSAKKPASCFEVE
# Variants of: B1
# Conditions: with angt_human AGT
row,effect of a mutation on the interaction,Variant
1,decreasing interaction,MALNSSAEDGIKRIQDDCPKAGRHSYIFVMIPTLYSIIFVVGIFGNSLVVIVIYFYMKLKTVASVFLLNLALADLCFLLTLPLWAVYTAMEYRWPFGNHLCKIASASVSFNLYASVFLLTCLSIDRYLAIVHPMKSRLRRTMLVAKVTCIIIWLMAGLASLPAVIHRNVYFIENTNITVCAFHYESRNSTLPIGLGLTKNILGFLFPFLIILTSYTLIWKALKKAYEIQKNKPRNDDIFRIIMAIVLFFFFSWVPHQIFTFLDVLIQLGVIHDCKISDIVDTAMPIAICIAYFNNCLNPLFYGFLGKKFKKYFLQLLKYIPPKAKSHSSLSTKMSTLSYRPSDNMSSSAKKPASCFEVE [T287A]

# Variants of: B1
# Conditions: with angt_human AGT
# Remark: another data set of the same source
row,effect of a mutation on the interaction,Variant
1,decreasing interaction,MALNSSAEDGIKRIQDDCPKAGRHSYIFVMIPTLYSIIFVVGIFGNSLVVIVIYFYMKLKTVASVFLLNLALADLCFLLTLPLWAVYTAMEYRWPFGNHLCKIASASVSFNLYASVFLLTCLSIDRYLAIVHPMKSRLRRTMLVAKVTCIIIWLMAGLASLPAVIHRNVYFIENTNITVCAFHYESRNSTLPIGLGLTKNILGFLFPFLIILTSYTLIWKALKKAYEIQKNKPRNDDIFRIIMAIVLFFFFSWVPHAIFTFLDVLIQLGVIHDCKISDIVDTAMPITICIAYFNNCLNPLFYGFLGKKFKKYFLQLLKYIPPKAKSHSSLSTKMSTLSYRPSDNMSSSAKKPASCFEVE [Q257A]

# Variants of: B1
# Conditions: with angt_human AGT
# Remark: another data set of the same source
row,effect of a mutation on the interaction,Variant
1,decreasing interaction,MALNSSAEDGIKRIQDDCPKAGRHSYIFVMIPTLYSIIFVVGIFGNSLVVIVIYFYMKLKTVASVFLLNLALADLAFLLTLPLWAVYTAMEYRWPFGNHLCKIASASVSFNLYASVFLLTCLSIDRYLAIVHPMKSRLRRTMLVAKVTCIIIWLMAGLASLPAVIHRNVYFIENTNITVCAFHYESRNSTLPIGLGLTKNILGFLFPFLIILTSYTLIWKALKKAYEIQKNKPRNDDIFRIIMAIVLFFFFSWVPHQIFTFLDVLIQLGVIHDCKISDIVDTAMPITICIAYFNNALNPLFYGFLGKKFKKYFLQLLKYIPPKAKSHSSLSTKMSTLSYRPSDNMSSSAKKPASCFEVE [C76A;C296A]

# Variants of: B1
# Conditions: with angt_human AGT
# Remark: another data set of the same source
row,effect of a mutation on the interaction,Variant
1,decreasing interaction,MALNSSAEDGIKRIQDDCPKAGRHSYIFVMIPTLYSIIFVVGIFGNSLVVIVIYFYMKLKTVASVFLLNLALADLCFLLTLPLWAVYTAMEYRWPFGNHLCKIASASVSFNLYASVFLLTCLSIDRYLAIVHPMKSRLRRTMLVAKVTCIIIWLMAGLASLPAVIHRNVYFIENTNITVCAFHYESRNSTLPIGLGLTKNILGFLFPFLIILTSYTLIWKALKKAYEIQKNKPRNDDIFRIIMAIVLFFFFSWVPHQIFTFLDVLIQLGVIHDCKISDIVDTAMPITICIAYFNCCLNPLFYGFLGKKFKKYFLQLLKYIPPKAKSHSSLSTKMSTLSYRPSDNMSSSAKKPASCFEVE [N295C]
2,decreasing interaction,MALNSSAEDGIKRIQDDCPKAGRHSYIFVMIPTLYSIIFVVGIFGNSLVVIVIYFYMKLKTVASVFLLNLALADLAFLLTLPLWAVYTAMEYRWPFGNHLCKIASASVSFNLYASVFLLTCLSIDRYLAIVHPMKSRLRRTMLVAKVTCIIIWLMAGLASLPAVIHRNVYFIENTNITVCAFHYESRNSTLPIGLGLTKNILGFLFPFLIILTSYTLIWKALKKAYEIQKNKPRNDDIFRIIMAIVLFFFFSWVPHQIFTFLDVLIQLGVIHDCKISDIVDTAMPITIAIAYFNNCLNPLFYGFLGKKFKKYFLQLLKYIPPKAKSHSSLSTKMSTLSYRPSDNMSSSAKKPASCFEVE [C76A;C289A]

# Variants of: B1
# Conditions: with angt_human AGT
# Remark: another data set of the same source
row,effect of a mutation on the interaction,Variant
1,decreasing interaction,MALNSSAEDGIKRIQDDCPKAGRHSYIFVMIPTLYSIIFVVGIFGNSLVVIVIYFYMKLKTVASVFLLNLALADLCFLLTLPLWAVYTAMEYRWPFGNHLCKIASASVSFNLYASVFLLTCLSIDRYLAIVHPMKSRLRRTMLVAKVTCIIIWLMAGLASLPAVIHRNVYFIENTNITVCAFHYESRNSTLPIGLGLTKNILGFLFPFLIILTSYTLIWKALKKAYEIQKNKPRNDDIFRIIMAIVLFFFFSWVPHQIFTFLDVLIQLGVIHDCKISDIVDTAMPITICIAAFNNCLNPLFYGFLGKKFKKYFLQLLKYIPPKAKSHSSLSTKMSTLSYRPSDNMSSSAKKPASCFEVE [Y292A]

# Variants of: B1
# Conditions: with angt_human AGT
# Remark: another data set of the same source
row,effect of a mutation on the interaction,Variant
1,decreasing interaction,MALNSSAEDGIKRIQDDCPKAGRHSYIFVMIPTLYSIIFVVGIFGNSLVVIVIYFYMKLKTVASVFLLNLALADLAFLLTLPLWAVYTAMEYRWPFGNHLCKIASASVSFNLYASVFLLTCLSIDRYLAIVHPMKSRLRRTMLVAKVTCIIIWLMAGLASLPAVIHRNVYFIENTNITVCAFHYESRNSTLPIGLGLTKNILGFLFPFLIILTSYTLIWKALKKAYEIQKNKPRNDDIFRIIMAIVLFFFFSWVPHQIFTFLDVLIQLGVIHDCKISDIVDTAMPITIAIAYFNNALNPLFYGFLGKKFKKYFLQLLKYIPPKAKSHSSLSTKMSTLSYRPSDNMSSSAKKPASCFEVE [C76A;C289A;C296A]

# Variants of: B1
# Conditions: with angt_human AGT
# Remark: another data set of the same source
row,effect of a mutation on the interaction,Variant
1,decreasing interaction,MALNSSAEDGIKRIQDDCPKAGRHSYIFVMIPTLYSIIFVVGIFGNSLVVIVIYFYMKLKTVASVFLLNLALADLAFLLTLPLWAVYTAMEYRWPFGNHLCKIASASVSFNLYASVFLLTCLSIDRYLAIVHPMKSRLRRTMLVAKVTCIIIWLMAGLASLPAVIHRNVYFIENTNITVCAFHYESRNSTLPIGLGLTKNILGFLFPFLIILTSYTLIWKALKKAYEIQKNKPRNDDIFRIIMAIVLFFFFSWVPHQIFTFLDVLIQLGVIHDCKISDIVDTAMPITIAIAYFNNCLNPLFYGFLGKKFKKYFLQLLKYIPPKAKSHSSLSTKMSTLSYRPSDNMSSSAKKPASCFEVE [C76A;C289A]

# Variants of: B1
# Conditions: with angt_human AGT
# Remark: another data set of the same source
row,effect of a mutation on the interaction,Variant
1,increasing interaction,MALNSSAEDGIKRIQDDCPKAGRHSYIFVMIPTLYSIIFVVGIFGNSLVVIVIYFYMKLKTVASVFLLNLALADLAFLLTLPLWAVYTAMEYRWPFGNHLCKIASASVSFNLYASVFLLTCLSIDRYLAIVHPMKSRLRRTMLVAKVTCIIIWLMAGLASLPAVIHRNVYFIENTNITVCAFHYESRNSTLPIGLGLTKNILGFLFPFLIILTSYTLIWKALKKAYEIQKNKPRNDDIFRIIMAIVLFFFFSWVPHQIFTFLDVLIQLGVIHDCKISDIVDTAMPITIAIAYFNNCLNPLFYGFLGKKFKKYFLQLLKYIPPKAKSHSSLSTKMSTLSYRPSDNMSSSAKKPASCFEVE [C76A;C289A]
2,increasing interaction,MALNSSAEDGIKRIQDDCPKAGRHSYIFVMIPTLYSIIFVVGIFGNSLVVIVIYFYMKLKTVASVFLLNLALADLCFLLTLPLWAVYTAMEYRWPFGNHLCKIASASVSFNLYASVFLLTCLSIDRYLAIVHPMKSRLRRTMLVAKVTCIIIWLMAGLASLPAVIHRNVYFIENTNITVCAFHYESRNSTLPIGLGLTKNILGFLFPFLIILTSYTLIWKALKKAYEIQKNKPRNDDIFRIIMAIVLFFFFSWVPHQIFTFLDVLIQLGVIHDCKISDIVDTAMPITICIAYFCNCLNPLFYGFLGKKFKKYFLQLLKYIPPKAKSHSSLSTKMSTLSYRPSDNMSSSAKKPASCFEVE [N294C]

# Variants of: B1
# Conditions: with angt_human AGT
# Remark: another data set of the same source
row,effect of a mutation on the interaction,Variant
1,decreasing interaction,MALNSSAEDGIKRIQDDCPKAGRHSYIFVMIPTLYSIIFVVGIFGNSLVVIVIYFYMKLKTVASVFLLNLALADLCFLLTLPLWAVYTAMEYRWPFGNHLCKIASASVSFNLYASVFLLTCLSIDRYLAIVHPMKSRLRRTMLVAKVTAIIIWLMAGLASLPAVIHRNVYFIENTNITVCAFHYESRNSTLPIGLGLTKNILGFLFPFLIILTSYTLIWKALKKAYEIQKNKPRNDDIFRIIMAIVLFFFFSWVPHQIFTFLDVLIQLGVIHDCKISDIVDTAMPITICIAYFNNCLNPLFYGFLGKKFKKYFLQLLKYIPPKAKSHSSLSTKMSTLSYRPSDNMSSSAKKPASCFEVE [C149A]
